# ± gives the uncertainty stated by the source.
# Assay: self-splicing fitness, log relative to wild type (ln ratio); higher = more splicing; Tetrahymena group I intron in knt gene, E. coli kanamycin selection, DiMSum; sequences stand for … in CUCUCU…GGAGGGAAAAGUUAUCAGGCAUGCACCUGGUAGCUAGUCUUUAAACCAAUAGAUUGCAUCGGUUUAAAAGGCAAGACCGUCAAAUUGCGGGAAAGGGGUCAACAGCCGUUCAGUACCAAGUCUCAGGGGAAACUUUGAGAUGGCCUUGCAAAGGGUAUGGUAAUAAGCUGACGGACAUGGUCCUAACCACGCAGCCAAGUCCUAAGUCAACAGAUCUUCUGUUGAUAUGGAUGCAGUUCACAGACUAAAUGUCGGUCGGGGAAGAUGUAUUCUUCUCAUAAGAUAUAGUCGGACCUCUCCUUAAUGGGAGCUAGCGGAUGAAGUGAUGCAACACUGGAGCCGCUGGGAACUAAUUUGUAUGCGAAAGUAUAUUGAUUAGUUUUGGAGUACUCGUGGUCG
# Method in brief: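 Colonies from six replicate transformations of E. coli BL21(DE3) were pooled and amplicon-sequenced on an Illumina HiSeq 2500. The library placed an intron with all eight P1ex-region nucleotides randomised inside the knt kanamycin-resistance gene on pET-22b(+), and cells grew overnight at 37°C or 30°C on LB agar with or without 25 μg/mL kanamycin (plus 100 μg/mL carbenicillin, 50 μM IPTG, 0.2% rhamnose). Fitness is the DiMSum error-weighted combination of wild-type-normalised replicate fold changes, kanamycin versus none.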
sequence,measurement,setting,value
GGCGAGCAAUAUUACGGAAC,self-splicing fitness (ln),30 °C,-1.91 ± 0.19
same,self-splicing fitness (ln),37 °C,-1.68 ± 0.26
CGCAAGCAAUAUUACGUCUA,self-splicing fitness (ln),30 °C,-1.6 ± 0.13
same,self-splicing fitness (ln),37 °C,-0.573 ± 0.11
GACGAGCAAUAUUACGAGUU,self-splicing fitness (ln),30 °C,-3.06 ± 0.34
CAUCAGCAAUAUUACGUAAA,self-splicing fitness (ln),30 °C,-1.39 ± 0.11
same,self-splicing fitness (ln),37 °C,-0.891 ± 0.13
GAGCAGCAAUAUUACGGUUU,self-splicing fitness (ln),30 °C,-3.11 ± 0.17
same,self-splicing fitness (ln),37 °C,-1.84 ± 0.19
CGGUAGCAAUAUUACGAUAU,self-splicing fitness (ln),30 °C,-3.58 ± 0.31
same,self-splicing fitness (ln),37 °C,-1.33 ± 0.24
AACUAGCAAUAUUACGAUCA,self-splicing fitness (ln),30 °C,-0.213 ± 0.099
same,self-splicing fitness (ln),37 °C,-0.0939 ± 0.11
CGGAAGCAAUAUUACGAGUG,self-splicing fitness (ln),30 °C,-0.361 ± 0.05
same,self-splicing fitness (ln),37 °C,-0.0668 ± 0.075
CACAAGCAAUAUUACGGGAU,self-splicing fitness (ln),30 °C,-3.51 ± 0.14
same,self-splicing fitness (ln),37 °C,-1.41 ± 0.097
CCUUAGCAAUAUUACGCGGC,self-splicing fitness (ln),30 °C,-2.89 ± 0.27
same,self-splicing fitness (ln),37 °C,-3.63 ± 0.42
GUAAAGCAAUAUUACGCCGC,self-splicing fitness (ln),30 °C,-2.48 ± 0.3
same,self-splicing fitness (ln),37 °C,-1.92 ± 0.35
AUACAGCAAUAUUACGAGGA,self-splicing fitness (ln),30 °C,-3.26 ± 0.19
same,self-splicing fitness (ln),37 °C,-0.911 ± 0.12
AGCAAGCAAUAUUACGACAA,self-splicing fitness (ln),30 °C,-1.54 ± 0.15
same,self-splicing fitness (ln),37 °C,-0.436 ± 0.14
UUUUAGCAAUAUUACGUCGG,self-splicing fitness (ln),30 °C,-1.95 ± 0.15
same,self-splicing fitness (ln),37 °C,-0.321 ± 0.17
CGUCAGCAAUAUUACGGCGC,self-splicing fitness (ln),30 °C,-3.38 ± 0.37
same,self-splicing fitness (ln),37 °C,-1.3 ± 0.35
AUGUAGCAAUAUUACGCACC,self-splicing fitness (ln),30 °C,-1.63 ± 0.15
same,self-splicing fitness (ln),37 °C,-0.228 ± 0.18
GGUUAGCAAUAUUACGUUGU,self-splicing fitness (ln),30 °C,-2.02 ± 0.15
same,self-splicing fitness (ln),37 °C,-1.71 ± 0.18
CCGCAGCAAUAUUACGAGCU,self-splicing fitness (ln),30 °C,-2.93 ± 0.27
same,self-splicing fitness (ln),37 °C,-3.37 ± 0.28
CAGAAGCAAUAUUACGUCAU,self-splicing fitness (ln),37 °C,-2.9 ± 0.25
GUCAAGCAAUAUUACGUAAG,self-splicing fitness (ln),30 °C,-2.15 ± 0.073
same,self-splicing fitness (ln),37 °C,-1.57 ± 0.11
AACCAGCAAUAUUACGACGU,self-splicing fitness (ln),30 °C,-0.111 ± 0.046
same,self-splicing fitness (ln),37 °C,0.409 ± 0.06
CGAGAGCAAUAUUACGCCCA,self-splicing fitness (ln),37 °C,-0.872 ± 0.36
GCGCAGCAAUAUUACGUUGC,self-splicing fitness (ln),30 °C,-2.95 ± 0.14
same,self-splicing fitness (ln),37 °C,-2.51 ± 0.27
UCUCAGCAAUAUUACGCAGG,self-splicing fitness (ln),30 °C,-4.14 ± 0.42
same,self-splicing fitness (ln),37 °C,-2.28 ± 0.25
ACAUAGCAAUAUUACGGCAU,self-splicing fitness (ln),30 °C,-1.06 ± 0.072
same,self-splicing fitness (ln),37 °C,-0.486 ± 0.079
GACGAGCAAUAUUACGAGAC,self-splicing fitness (ln),30 °C,-3.99 ± 0.28
same,self-splicing fitness (ln),37 °C,-1.95 ± 0.28
GGUCAGCAAUAUUACGUGGA,self-splicing fitness (ln),30 °C,-1.82 ± 0.14
same,self-splicing fitness (ln),37 °C,-1.58 ± 0.14
UGUGAGCAAUAUUACGCGCA,self-splicing fitness (ln),30 °C,-1.34 ± 0.44
same,self-splicing fitness (ln),37 °C,-0.203 ± 0.48
CUUAAGCAAUAUUACGUCGA,self-splicing fitness (ln),30 °C,-1.85 ± 0.19
same,self-splicing fitness (ln),37 °C,-2.19 ± 0.38
CAGUAGCAAUAUUACGGGCU,self-splicing fitness (ln),30 °C,-3.56 ± 0.26
same,self-splicing fitness (ln),37 °C,-1.21 ± 0.15
GAUCAGCAAUAUUACGUAAU,self-splicing fitness (ln),30 °C,-0.0684 ± 0.098
same,self-splicing fitness (ln),37 °C,-0.341 ± 0.13
UUCUAGCAAUAUUACGGGGG,self-splicing fitness (ln),30 °C,-3.75 ± 0.37
same,self-splicing fitness (ln),37 °C,-2.09 ± 0.22
UAUGAGCAAUAUUACGUUAG,self-splicing fitness (ln),30 °C,-2.63 ± 0.17
same,self-splicing fitness (ln),37 °C,-2.23 ± 0.22
UCGCAGCAAUAUUACGUGGC,self-splicing fitness (ln),30 °C,-3.81 ± 0.42
same,self-splicing fitness (ln),37 °C,-2.45 ± 0.31
UCUAAGCAAUAUUACGUUCU,self-splicing fitness (ln),30 °C,-3.14 ± 0.22
same,self-splicing fitness (ln),37 °C,-1.47 ± 0.14
CGCCAGCAAUAUUACGAUGA,self-splicing fitness (ln),30 °C,-2.2 ± 0.12
same,self-splicing fitness (ln),37 °C,-1.48 ± 0.13
GGUUAGCAAUAUUACGGCGA,self-splicing fitness (ln),30 °C,-0.237 ± 0.09
same,self-splicing fitness (ln),37 °C,0.106 ± 0.086
UGCUAGCAAUAUUACGACUU,self-splicing fitness (ln),30 °C,-0.801 ± 0.2
same,self-splicing fitness (ln),37 °C,-0.152 ± 0.17
AUGCAGCAAUAUUACGGAUU,self-splicing fitness (ln),30 °C,-1.57 ± 0.071
same,self-splicing fitness (ln),37 °C,-1.14 ± 0.1
AGCUAGCAAUAUUACGGCAU,self-splicing fitness (ln),30 °C,-0.602 ± 0.11
same,self-splicing fitness (ln),37 °C,-0.476 ± 0.14
GAUUAGCAAUAUUACGACGA,self-splicing fitness (ln),30 °C,-1.23 ± 0.3
same,self-splicing fitness (ln),37 °C,-0.273 ± 0.2
AGCUAGCAAUAUUACGCUAU,self-splicing fitness (ln),30 °C,-2.89 ± 0.21
same,self-splicing fitness (ln),37 °C,-1.42 ± 0.18
CAUGAGCAAUAUUACGACAC,self-splicing fitness (ln),37 °C,-1.19 ± 0.31

# — the supplement of paper PMC7877785
